According to patent US20250027068:
Residue numbers refer to the chain shown, from its start.

B1: PRT-495 (protein)
chain: MVTSVWTKGVTPPTDFIKGEDVFHAPYKAGQGWYDITKAFDGGDDLLCGAATAGNMLHWWFDQNKEYIEAYLKKHPEKQKIMFGDQELLDVRKAINTKGSQKNSELFNYFRDKAFPNLSARRLGVMPDLVLDMFINGYYLNVTKTQTTDVNRTYQEKDKRGGIFDAVFTRGDQSKLLTSRHDFKEKGLKEISDLIKQELTEGKALGLSHTYANVRINHVINLWGADFDSDGNLKAIYVTDSDSNASIGMKKYFVGVNSAGKVAISAKEIKEDNIGAQVLGLFTLSTGQDIWNQTNLEHHHHHH
B2: PRT-490 (protein)
chain: MVTSVWTKGVTPPTDFIYGEDVLHAPYKAGQGWYDITKTFNGKDNLLCGAATAGNMLHWWFDQNKEQIENYLKKHPEKQKIIFNNQELFDLKAAIDTKDSQLDSKLFEYFKEKAFPYLSTKHLGVFPDHVIDMFINGYRLSLTNHGPTPVKRGSKDKRGGIFDAVFTRGVQSKLLTNRHDFKEKTLKEISDLIKQELTEGKALGISHTYANVRINHVINLWGADFDAEGNLEAIYVTDSDTNASIGMKKYFVGVNSNGKVAISAKEIEEDNIGAQVLGLFTLSTGQDIWNQTNLEHHHHHH
B3: PRT-509 (protein)
chain: MITSVWTKGVTPPTDFRKIVDGNIAYYHAPYKAGQGWYDITKTFNGKDDLLCGAATAGNMLHWWFDQNKEEIEAYLKKHPEKQKIMFGDQELLDVRKVINTKDSQTNSALFNYFKDKAFPNLSARRLGVMPDLVLDMFINGYYLNVYKTQTTDVNRTYQTKDRRGGIFDAVFTRGDQSKLLTERHDFKEKTLKEISDLIKQELTEGKALGLSHTYANVRINHVINLWGADFDSNGNLEAIYVTDSDSNASIGMKKYFVGVNSAGKVAISAKEIKEDNIGAQVLGLFTLSTGQDIWNQTNLEHHHHHH
B4: PRT-475 (protein)
chain: MVTSVWTKGVTPPTNFRKIVDGNIAYYHAPYVANQGWYDITKTFNGKDDLLCGAATAGNMLHWWFDQNKEQIENYLKKHPEKQKINFNGEQMFDVKEAIDTKDSQLDSKLFEYFKEKAFPYLSTKHLGVFPDHVIDMFINGYRLSLTNHGPTPVKRGSKDPRGGIFDAVFTRGDQSKLLTNRHDLKNKTLKEISDLIKQELTEGKALGISHTYANVRINHVINLWGADFDAEGNLEAIYVTDSDSNASIGMKKYFVGVNSNGKVAISAKEIEEDNIGAQVLGLFTLSTGQDIWNQTNLEHHHHHH
B5: PRT-465 (protein)
chain: MVTSVWTKGVTPPANFTQGEDVFHAPYVANQGWYDITKTFNGKDDLLCGAATAGNMLHWWFDQNKDQIERYLKEHPEKQKINFNGEQMFDVKEAIDTKDSQTDSKLFEYFKEKAFPYLSTKHLGVFPDHVLDMFINGYRLSLTNHGPTPVKEGSKDPRGGIFDAVFTRGDQSKLLTSRHDLKNKTLKEISDLIKQELTEGKALGLSHTYANVRINHVINLWGADFDSEGNLKAIYVTDSDSNASIGMKKYFVGVNSAGKVAISAKEIKEDNIGAQVLGLFTLSTGQDIWNQTNLEHHHHHH
B6: PRT-516 (protein)
chain: MITSVWTKGVTPPTDFIKGEDVFHAPYKAGQGWYDITKAFDGGDDLLCGAATAGNMLHWWFDQNKEEIEAYLKKHPEKQKIMFGDQELLDVRKVINTKDSQTNSALFNYFKDKAFPNLSARRLGVMPDLVLDMFINGYYLNVYKTQTTDVNRTYQTKDRRGGIFDAVFTRGDQSKLLTERHDLKNKTLNEISQLIKQELTEGKALGLSHTYANVRINHVINLWGADFDAEGNLEAIYVTDSDSNASIGMKKYFVGVNSAGKVAISAKEIKEDNIGAQVLGLFTLSTGQDIWNQTNLEHHHHHH
B7: PRT-635 (protein)
chain: MQITSVWTKGVTPLTPDQFTNQGEDVIHAPYTPNQGWYDITKAFDGKDNLLCGAATAGNMLHWWFDQNKTEIEAYLSKHPEKQKIIFNNQELFDLKAAIDTKDSQTNSQLFNYFRDKAFPNLSARQLGVMPDLVLDMFINGYYLNVFKTQSTDVNRPYQDKDKRGGIFDAVFTRGDQTTLLTARHDLKNKGLNDISTIIKQELTEGKALALSHTYANVSISHVINLWGADFNAEGNLEAIYVTDSDANASIGMKKYFVGINAHGHVAISAKKIEGENIGAQVLGLFTLSSGKDIWQKLSLEHHHHHH
B8: PRT-497 (protein)
chain: MVTSVWTKGVTPPTDFRKIVDGNIAYYHAPYKAGQGWYDITKTFNGKDDLLCGAATAGNMLHWWFDQNKEYIEAYLKKHPEKQKIMFGDQELLDVRKAINTKGSQKNSELFNYFRDKAFPNLSARRLGVMPDLVLDMFINGYYLNVTKTQTTDVNRTYQEKDKRGGIFDAVFTRGDQSKLLTSRHDFKEKGLKEISDLIKQELTEGKALGLSHTYANVRINHVINLWGADFDSDGNLKAIYVTDSDSNASIGMKKYFVGVNSAGKVAISAKEIKEDNIGAQVLGLFTLSTGQDIWNQTNLEHHHHHH
B9: PRT-457 (protein)
chain: MVTSVWTKGVTPPTDFIKGEDVFHAPYKAGQGWYDITKAFDGGDDLLCGAATAGNMLHWWFDQNKDQIEAYLKEHPEKQKINFNGEQMFDVKEAIDTKDDQTNSELFNYFKEKAFPYLSTKHLGVFPDHVLDMFINGYRLSLTNHGPTPVKRQEKDPRGGIFDAVFGRGDQTKLLTSRHDLKNKTLKEISDLIKQELTEGKALALSHTYANVRINHVINLWGADFDSNGNLEAIYVTDSDSNASIGMKKYFVGVNSAGKVAISAKEIEDDNIGAQVLGLFTLSTGQKIWNKTNLEHHHHHH
B10: PRT-469 (protein)
chain: B9 chain with A70R, D100S, A204G, N228E, E232K, E268K, D269E
B11: PRT-687 (protein)
chain: MQITSVWTKGVTPLTPEQFRYNNEDVIHAPYKPHQGWYDITKTFNGKDNLLCGAATAGNMLHWWFDQNKTEIEAYLKKYPEKQKIIFNNQKLFDLRKAINTKDSQTNSALFNYFRDKAFPNLSARQLGVMPDLVLDMFINGYYLNVFKTQSTDVNRPYQTRDKRGGIFDHVFGRGDQTTLLTARHDLKNKTLNEISQIIKQELSEGKALALSHTYANVSISHVINLWGADFNAEGNLEAIYVTDSDANAKIGMKKYYVGKNAHGKVAISAKKIEGENIGAQVLGLFTLSSGKDIWQKLSLEHHHHHH
B12: PRT-449 (protein)
chain: MVTSVWTKGVTPPTDFRKIVDGNIAYYHAPYKAGQGWYDITKTFNGKDDLLCGAATAGNMLHWWFDQNKDQIEAYLKEHPEKQKINFNGEQMFDVKEAIDTKDDQTNSKLFEYFKEKAFPYLSTKHLGVFPDHVLDMFINGYRLSLTNHGPTPVKEGSKDPRGGIFDAVFTRGDQSKLLTSRHDFKEKTLKEISDLIKQELTEGKALALSHTYANVRINHVINLWGADFDSNGNLEAIYVTDSDSNASIGMKKYFVGVNSAGKVAISAKEIEDDNIGAQVLGLFTLSTGQDIWNQTNLEHHHHHH
B13: PRT-463 (protein)
chain: MVTSVWTKGVTPPANFRKIVDGNIAYYHAPYVANQGWYDITKTFNGKDDLLCGAATAGNMLHWWFDQNKDQIERYLKEHPEKQKINFNGEQMFDVKEAIDTKDSQTDSKLFEYFKEKAFPYLSTKHLGVFPDHVLDMFINGYRLSLTNHGPTPVKEGSKDPRGGIFDAVFTRGDQSKLLTSRHDLKNKTLKEISDLIKQELTEGKALGLSHTYANVRINHVINLWGADFDSEGNLKAIYVTDSDSNASIGMKKYFVGVNSAGKVAISAKEIKEDNIGAQVLGLFTLSTGQDIWNQTNLEHHHHHH
B14: PRT-461 (protein)
chain: B13 chain with A14T, N15D, V32K, N34G, L185F, N187E

Target: pooled human IgG (human IgG1, 2, 3 and 4)

| Protein | Enzyme Activity Endpoint Assay (purified): Fab′2 [ng/µL] | Enzyme Activity Endpoint Assay (purified): Fc [ng/µL] | Enzyme Activity Endpoint Assay (purified): IgG [ng/µL] | Enzyme Activity Endpoint Assay (purified): scIgG [ng/µL] | Enzyme Activity Endpoint Assay: Fab′2 [ng/µL] | Enzyme Activity Endpoint Assay: Fc [ng/µL] | Enzyme Activity Endpoint Assay: IgG [ng/µL] | Enzyme Activity Endpoint Assay: scIgG [ng/µL] |
| --- | --- | --- | --- | --- | --- | --- | --- | --- |
| B1 | 0 | 37 | 0 | 0 |  |  |  |  |
| B2 | 73 | 243 | 166 | 875 |  |  |  |  |
| B3 | 21 | 26 | 0 | 0 |  |  |  |  |
| B4 | 1150 | 413 | 0 | 0 |  |  |  |  |
| B5 |  |  |  |  | 504 | 296 | 111 | 501 |
| B6 | 16 | 23 | 0 | 0 |  |  |  |  |
| B7 | 0 | 0 | 0 | 0 |  |  |  |  |
| B8 | 0 | 0 | 0 | 0 |  |  |  |  |
| B9 | 450 | 379 | 138 | 337 |  |  |  |  |
| B10 | 41 | 139 | 50 | 248 |  |  |  |  |
| B11 | 738 | 420 | 0 | 295 |  |  |  |  |
| B12 | 1100 | 365 | 0 | 0 |  |  |  |  |
| B13 |  |  |  |  | 821 | 259 | 0 | 0 |
| B14 | 399 | 309 | 154 | 298 |  |  |  |  |
